Data on 30 sequences can be found in the nanobody polyreactivity screen of Harvey et al. (2022).

This data set can be described thus: yeast display, Sf9 membrane polyspecificity reagent, FACS + sequencing; frameworks hold sequencing errors. The method in brief: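 Polyreactivity labels are assigned by the sorting gate from which each nanobody was recovered. The gates were low and high (top ~1%), set on anti-HA fluorescence for expression and streptavidin fluorescence for reagent binding. Before sorting, galactose-induced (36–48 hours) yeast display cells were stained for 1 hour at 4 °C with 10% biotinylated, detergent-solubilized Sf9 membrane reagent.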
Take “QVQLLESGGGLVQAGGRLRLSCADSGGIIAYNAIGWYRQAPAKERELVAAISSSGGRTYYADSVKGRFTISRDNAKITVYLQMNSLKPEDTAVYYFAAVRSGIEYGYWGQGTQVTVSS”: the “polyreactivity (PSR sort gate)” value was “high polyreactivity”.

On to “QVQLLESGGGLVQAGGRLRLSCAPSGRSIRYYTMGWYRQAPGKERELVAAISRSGDSTYYADSVKGRFTISRDNEKNTVYVQLKCLIPVDTAVYYCAASLVYQFCYDYWGQGTQVSVSS”, for which the “polyreactivity (PSR sort gate)” value is “high polyreactivity”.

In the case of “QVQLLESGGGLVQAGGSHRLSCASSGRTFSRYAMGWYRQAPGKERELVAAISYSGGSTYADSVKGRFTISRDNAKNTVYLQMIRLKPEDTAVYYCAAEKYVYWFSYQYGYWGQGTQVSVSS”, the “polyreactivity (PSR sort gate)” value is “high polyreactivity”.

“QVQLLESGGGLVQAGGSLRFSCAASGFTFPVYAMGWYRQAHGKEREFVAAISWSGGSTSYADSVKGRFTSSRDNAKNTVYLQMNSLKPEDTAVYYCAAEHEQYTQLDYWGQGTQVTVAS”: the “polyreactivity (PSR sort gate)” value is on record as “high polyreactivity”.

As for “QVQLLESGGGLVQAGGSLRISCASSVRISPRYAMGWYRQAPGKERELVAAIDTSDGTTYYADSVKGRFTISRDNAMKTVYFQMNSLKPEDTAVYYCAAEGQLFDLYDYWGHGTQVTVSS”, the “polyreactivity (PSR sort gate)” value was “low polyreactivity”.

As for “QVQLLESGGGLVQAGGSLRLICAASGLIFGPYTMGWYRQAPGKERELVAAITRSGGRTYYADSVKGRFTISRDNAKNTVYLQMNRLKPEDTAVYYCAAYGGQSWDYDYWGQGTQVTVSS”, the “polyreactivity (PSR sort gate)” value was “high polyreactivity”.

In the case of “QVQLLESGGGLVQAGGSLRLSCAASGFIFSKYAMGWYRQAPGKERELVAGINRSGGSTYYADSVKGRFTISRDNAKNTVYFQMNSLKPEDTAVYYCAAPFGVQSRWYGQSGYWGQGTQVTVSS”, the “polyreactivity (PSR sort gate)” value is given as “high polyreactivity”.

Regarding “QVQLLESGGGLVQAGGSLRLSCAASGFTFQYYAMGWYRQAPGKERELVAAITRGDSTNYADSVKGRFTISRDNAKNTVYLQMNSLKPEDTAVYYCAAGSAPSYWGGWYYERDYWGQGTQVTVSS”, the “polyreactivity (PSR sort gate)” value is given as “low polyreactivity”.

Regarding “QVQLLESGGGLVQAGGSLRLSCAASGFTFVYYAMGWYRQAPGKERELVAAISSSGGITYYADSVKGRFTISRDNAKNTVYLQMNSMKPEDTAVYYCAARLWYPYYYWGQGTQVTVSS”, the “polyreactivity (PSR sort gate)” value is on record as “high polyreactivity”.

For “QVQLLESGGGLVQAGGSLRLSCAASGFTFYRYAMGWYRQAPGTERELVAVISRGGNTYYADSVKGRFTISRDNAKNTVYLQMNSLKPEDTAVYDCAVYYPRGVSGGRFTRYDYWGQGTQVTVSS”, the “polyreactivity (PSR sort gate)” value is “high polyreactivity”.

For “QVQLLESGGGLVQAGGSLRLSCAASGITFEHYAMGWYRPAPGKERELVAAITWSGDSTNYADSVKGRFTISRDNAKNTVYLQMNSLNPEDTAVYYCAAYAYAGLYSGTWGYDYWGQGTQVTVSS”, the “polyreactivity (PSR sort gate)” value is given as “low polyreactivity”.

On to “QVQLLESGGGLVQAGGSLRLSCAASGLTFTAYVMGWYRHAPGKERELVAAISGGGSTYADSVKGRFTISGDNAKNTVSLQMNSLKPEDTAVYYCNADGWGDRFWSNFRFDYWGQGTQVTVSS”, for which the “polyreactivity (PSR sort gate)” value is on record as “low polyreactivity”.

Turning to “QVQLLESGGGLVQAGGSLRLSCAASGLTIWRYAMGWYRQAPGKEREFVATISHNGGRTYYADSVKGRFTISRDNAKNSVYLQMNSLKPEDTAVYYCAADDWRWGYDYWGQGTQVTVSS”, the “polyreactivity (PSR sort gate)” value is reported as “high polyreactivity”.

Consider “QVQLLESGGGLVQAGGSLRLSCAASGNTFSYYTMGWYRPAPGKERELVAAISASGGSTYYADSVKGRFTISRDNAKNTVYIQMNSLKQEDTAVYYCAASFYIERHRYNYWGHGTQVTVSS”, for which the “polyreactivity (PSR sort gate)” value is “high polyreactivity”.

Turning to “QVQLLESGGGLVQAGGSLRLSCAASGNTYPVNARGWYRQAPGKERDLVAAISRTGASTYYADSVKGRFTISRDNAKNTVYLQMNSLIPEDTAVYYCAKYLKTPHNRRRVEALGYWGQGTQVTVSS”, the “polyreactivity (PSR sort gate)” value is listed as “high polyreactivity”.

For “QVQLLESGGGLVQAGGSLRLSCAASGRIFNYNAMGWYRQAPGKERELVAAISWDGGSTYYADSVKGRFTISRDNAKNTVYLQMNSLKPEDTAVYYCAARGGSRRFQSQAYSLPRYDYWGQGTQVTVSS”, the “polyreactivity (PSR sort gate)” value is recorded as “high polyreactivity”.

“QVQLLESGGGLVQAGGSLRLSCAASGRIFRRYAMGWYRQAPGKEREFVAAITKSGGSTYYADSVKGRFTISRDNAKNTVYLQMNSLKPEDTAVYYCATYPQYYFRYDYWGQGTQVTVSS”: the “polyreactivity (PSR sort gate)” value is reported as “high polyreactivity”.

Turning to “QVQLLESGGGLVQAGGSLRLSCAASGRNFGVNAMGWYRQAPGKERELVAVISSGGSTYYADSVKGRFTISRDNAKNTVFLQMNSLKPEDTAVYYCAAGNLPDYDYWGQGTQVTVSS”, the “polyreactivity (PSR sort gate)” value is given as “low polyreactivity”.

In the case of “QVQLLESGGGLVQAGGSLRLSCAASGRNFSRYAMGWYRQAPGKERELVAGITRSGTTTYYADSVKGRFTISRDNAKNTVYLQMNSLKPEDTAVYYCAAPPIRPNLYDYWGQGTQVTVSS”, the “polyreactivity (PSR sort gate)” value is on record as “high polyreactivity”.

Turning to “QVQLLESGGGLVQAGGSLRLSCAASGRSYCNNVMGWYRQEPGKERELVAAITFSGTSTYYADSVKVRFTISRDNAKNTVYLQMNSLKPEDTAVYYCAKYRYADYYSPCYDYWGQGTQVTVSS”, the “polyreactivity (PSR sort gate)” value was “low polyreactivity”.

As to “QVQLLESGGGLVQAGGSLRLSCAASGRTCRWYAMGWYTQAPWKERELVAAISSSTASTYYADSVKGRFTISRDYAKITVYLQMNSLKPEDSAVYYCAKYYYRFPVCYDYWGLGTQVTVSS”, the “polyreactivity (PSR sort gate)” value is recorded as “high polyreactivity”.

For “QVQLLESGGGLVQAGGSLRLSCAASGRTFRRYAMGWYRQAPGKERELVAAISYSGTTTYYADSVKGRFTISRDNAKNTVYLQMNSLKPEDTAVYYCNKATAYGLDYWGQGTQVTVSS”, the “polyreactivity (PSR sort gate)” value is given as “high polyreactivity”.

On to “QVQLLESGGGLVQAGGSLRLSCAASGRTFRVYARGWYRQAPGKEREFVATISVRGGSTYYAYSVKGRFTISRDNAKITVYLQMNSLKPVDTAVYYCARSSRGNLDYWGQGTQVSVSS”, for which the “polyreactivity (PSR sort gate)” value was “low polyreactivity”.

Turning to “QVQLLESGGGLVQAGGSLRLSCAASGRTFRYYTMGWYRQAPGKEREFVDAISSTGGTYYADSVKGRFTISRDNAKNTVYLQMNCLKPEDTAVYYCAATFIQVVVNVQLYDYDYWGQGTQVTVSS”, the “polyreactivity (PSR sort gate)” value is on record as “low polyreactivity”.

As to “QVQLLESGGGLVQAGGSLRLSCAASGRTFTGYVMGWYRQATGKERELVAGISRRGGRTYYADSVKGRFTISRDNAKNTVYLQMNSLKPEDTAVYYCAAAVTSSDPYDYWGQGTQVTVSS”, the “polyreactivity (PSR sort gate)” value is on record as “high polyreactivity”.

Turning to “QVQLLESGGGLVQAGGSLRLSCAASGRTFTSNVMGWYRQAPGKERELVAAISSSGGRTYYADSVKGRFTISRDNAKNTVYLLMNSLKPEDTAVYSCAADGYPEYPRYGYWGQGTQVTVSS”, the “polyreactivity (PSR sort gate)” value is given as “high polyreactivity”.

On to “QVQLLESGGGLVQAGGSLRLSCAASGSIFDGYGMGWYRQAPGKERELVAGITSGGSTYYADSVKGRFTISRDTAKNTVYLQMNSLKPEDTAVYYCATVVRYSNARGDYWGQGTQVTVSS”, for which the “polyreactivity (PSR sort gate)” value is recorded as “low polyreactivity”.

Regarding “QVQLLESGGGLVQAGGSLRLSCAASGSIFYPYAMGWHRQAPGKERELVAAISYSGGSTYYADSVKGSFTISRDNAKNTVYLQMNSLKPEDSAVYYCAASVFRGSATYDSWGQGTHVTVSS”, the “polyreactivity (PSR sort gate)” value is recorded as “high polyreactivity”.

Consider “QVQLLESGGGLVQAGGSLRLSCAASGSNFSSYAMGWSRQAPGTERELVASISRRGGSTYYADSVKGRFTISRDNAKNTVYLQMNSLKPEDTAVYYCNASGGPYRYYYWGQGTQVTVSS”, for which the “polyreactivity (PSR sort gate)” value is reported as “low polyreactivity”.

Regarding “QVQLLESGGGLVQAGGSLRLSCAASGSTFSYNAMGWYIQAPGKERELVAAIDRSVSTNYADSVKGRFTISRDNAKNTVYLQMNSLKPEDTEVYYCNARHPTDDIVIYDYWGQGTQVTVSS”, the “polyreactivity (PSR sort gate)” value is given as “low polyreactivity”.
